Experimental data published in the supplement of paper PMC10567573.

B1: ZNF193 (parent)
chain: QCIECGKSFNRHCNLIRHQKIHTV
B2: LCOR (parent)
chain: PCAGSTSLSHSPGCSSTQGNGRPG

Variants of: B1
Assay: protein stability index of a GFP-peptide fusion (GPS, HEK-293T) (PSI 1-6); higher = more stable
Conditions: c terminus: a fixed tail appended
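Note: lentivirally expressed fusions sorted by FACS into six bins by GFP to DsRed ratio, PSI derived from sequencing read proportions per bin multiplied by bin number.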

Protein stability index of substitutions, site by site:
I16: G 3.02 | W 2.46 | N 2.89 | F 2.43 | L 3.29 | Q 3.64 | C 3.9 | S 3.41 | E 3.44 | H 3.18 | V 3.69 | K 4 | P 2.56 | M 3.1 | Y 2.94 | T 3.3 | A 2.74 | D 2.96 | R 3.51
N10: K 4.64 | F 3.02 | R 3.97 | A 3.54 | P 2.8 | G 3.29 | D 3.88 | Q 3.73 | M 3.14 | W 3.51 | I 3.28 | E 3.92 | C 3 | V 3.75 | H 3.91 | T 4.08 | S 3.48 | Y 2.98 | L 2.48
C5: P 2.49 | M 1.94 | Y 2.26 | I 1.53 | V 2.13 | T 1.95 | K 2.09 | A 2.36 | Q 2.6 | L 1.54 | R 2.22 | N 1.79 | H 1.98 | G 2.01 | E 2.71 | F 1.44 | D 2.52 | W 2.07 | S 2.56
L15: A 2.82 | T 2.29 | F 3.32 | V 2.34 | I 2.24 | H 4.19 | Q 2.9 | D 3.18 | K 2.94 | R 3.01 | P 2.39 | Y 3.35 | W 4.43 | E 3.06 | S 2.62 | N 3.29 | M 3.35 | C 3.6 | G 3.04
S8: L 4.35 | P 3.13 | M 3.48 | C 3.85 | A 2.84 | G 2.49 | H 3.29 | W 3.17 | Y 3.43 | Q 3.02 | K 3.64 | T 3.96 | I 4.05 | D 3.4 | V 4.35 | E 3.52 | F 4.03 | N 3.47 | R 3.77
R11: I 2.89 | S 4.1 | V 3.21 | K 3.7 | D 4.37 | L 3.5 | Q 2.96 | T 4.4 | G 3.25 | N 4.26 | W 2.62 | P 3.21 | M 2.86 | E 3.76 | F 3.07 | H 3.5 | A 3.38 | C 3.55 | Y 3.04
C13: L 2.73 | Y 3.29 | S 3.95 | I 3.04 | V 3.88 | Q 3.32 | R 3.91 | H 3.56 | N 3.2 | W 3.04 | P 2.99 | G 3.75 | K 3.74 | M 2.91 | T 3.29 | D 4.1 | E 4.55 | A 4.31 | F 2.62
N14: W 2.29 | C 3.43 | F 2.32 | D 5.09 | V 2.83 | G 2.72 | Q 4.31 | Y 2.33 | S 3.71 | L 3.11 | T 3.44 | P 2.25 | H 3.44 | K 3.38 | R 3.12 | I 2.6 | M 3.5 | E 3.94 | A 3.9
K7: R 3.05 | P 2.59 | G 2.13 | F 2.37 | D 2.57 | Q 3.45 | V 2.44 | W 2.18 | M 3.34 | Y 2.29 | T 2.93 | C 2.51 | A 3.74 | S 2.82 | N 2.34 | H 2.35 | E 3.86 | L 2.86 | I 3.08
F9: R 2.77 | Q 2.88 | V 1.92 | P 3.25 | N 2.56 | D 3.09 | C 3.47 | H 2.55 | M 2.51 | L 1.9 | T 2.59 | S 2.83 | G 2.86 | Y 3.01 | E 2.93 | A 2.24 | I 2.13 | K 3.06 | W 2.77
I3: A 4.7 | E 4.31 | S 4.17 | P 4.11 | H 4.06 | F 3.32 | Q 4.09 | V 3.73 | L 3.87 | Y 3.38 | W 3.18 | N 3.65 | D 3.4 | R 3.59 | K 3.87 | C 3.63 | M 3.69 | T 4.2 | G 3.72
C2: G 2.13 | H 1.6 | E 2.77 | S 1.81 | P 1.34 | R 1.72 | K 1.95 | I 2.06 | A 1.66 | T 1.74 | M 1.71 | L 1.63 | Y 2.03 | F 1.07 | W 2.04 | Q 2.14 | D 2.41 | N 2.45 | V 2.73
E4: W 3.85 | C 2.54 | T 3.42 | P 1.39 | I 3.54 | Y 3.06 | F 3.94 | M 3.1 | D 2.78 | Q 3.43 | A 3.12 | H 4.27 | L 2.66 | R 3.71 | G 2.04 | V 3.48 | S 2.75 | N 2.76 | K 3.1
H12: E 3.81 | P 3.74 | T 3.71 | I 3.43 | W 3.19 | M 3.65 | D 3.36 | Y 3.27 | K 3.98 | S 3.22 | G 3.02 | F 3.06 | R 3.22 | L 4.23 | C 2.92 | Q 4 | A 3.48 | N 3.52 | V 3.76
G6: H 2.15 | V 1.92 | T 2.23 | I 1.42 | Y 2.17 | R 2.5 | F 1.59 | E 2.84 | A 2.38 | W 1.5 | C 1.99 | K 3.54 | Q 2.44 | P 2.18 | S 2.54 | N 2.38 | M 2.11 | L 1.97 | D 2.62
R17: E 4.18 | K 3.74 | H 3.13 | D 3.78 | S 3.4 | W 2.66 | Q 3.91 | F 2.22 | I 2.31 | G 3.07 | T 3.75 | N 3.24 | M 2.95 | V 2.99 | L 2.9 | A 3.31 | P 2.15 | C 3.57
Q1: M 3.54 | W 2.3 | L 3.14 | K 3.6 | V 3.21 | C 3.26 | H 3.36 | I 3.28 | F 2.83 | S 3.44 | A 3.14 | G 2.45 | D 3.5 | T 4.04 | E 2.8 | R 4.1 | N 2.56 | P 2.62 | Y 2.99

Variants of: B2
Assay: as above
Conditions: c terminus: a fixed tail appended

Protein stability index: each site, then its substitutions
G24: W 2.47 | T 3.51 | Y 2.61 | Q 3.37 | V 2.68 | N 3.87 | M 2.82 | L 2.94 | S 3.22 | K 3.77 | P 3.42 | R 3.07
